The source of these data is patent publication US20180258172A1 (ZymoGenetics, published 2018).

Experiment [1] concerns the target T1, human zB7H6 (full-length, on cells) (human, UniProt Q68D85 25-454).
T1 construct: also called hzB7H6; hypothetical protein DKFZP686I21167
T1 sequence: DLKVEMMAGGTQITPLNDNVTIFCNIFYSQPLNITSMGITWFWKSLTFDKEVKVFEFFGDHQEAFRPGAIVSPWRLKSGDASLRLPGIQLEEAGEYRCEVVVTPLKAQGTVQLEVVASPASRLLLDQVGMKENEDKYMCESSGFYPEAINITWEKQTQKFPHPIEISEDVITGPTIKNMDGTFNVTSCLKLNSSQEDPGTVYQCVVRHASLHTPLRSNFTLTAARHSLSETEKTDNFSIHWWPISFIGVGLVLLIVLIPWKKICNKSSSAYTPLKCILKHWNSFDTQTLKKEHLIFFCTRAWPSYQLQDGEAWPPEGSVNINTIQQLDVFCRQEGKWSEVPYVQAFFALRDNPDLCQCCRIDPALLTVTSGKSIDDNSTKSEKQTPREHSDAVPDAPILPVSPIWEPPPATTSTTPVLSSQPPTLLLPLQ
The experiment in a line: competition FACS on K562 cells against NKp30/mFc2, 100-fold mass excess. On the procedure: K562 cells were probed by FACS with a soluble form of NKp30 (NKp30/mFc2 (SEQ ID NO:8), containing the extracellular domain of NKp30 and a murine Fc fragment). K562 cells were resuspended in PBS/2% FBS at a concentration of 1.6×10⁶ cells/ml (160,000 cells/sample). 100 μl samples were aliquoted and 1 μl of whole human IgG (Jackson #009-000-003) added to each. NKp30/mFc2 probe was added at a concentration of 2 μg/ml together with 10 μg/ml Heparin and 100-fold mass excess of a VASP protein (NKp30/VASP or a control VASP protein, human zB7R1/VASP (SEQ ID NO:12) or B7-DC/VASP (SEQ ID NO:13)). Cells were incubated for 1 hour on ice and washed with 2 ml cold PBS. Washed cells were resuspended in 100 μl of PBS/2% FBS with 1 μl PE anti-mIgG (Jackson 115-116-071) and incubated for 30 minutes on ice. Cells were then washed twice with 2 ml cold PBS, resuspended in 500 μl of PBS, and analyzed for PE staining on a FACSCalibur.

In another experiment the target is T2, NKp30/mFc2.
T2 construct: also called soluble NKp30 fusion protein; NKp30/mFc2-biotin
T2 chain: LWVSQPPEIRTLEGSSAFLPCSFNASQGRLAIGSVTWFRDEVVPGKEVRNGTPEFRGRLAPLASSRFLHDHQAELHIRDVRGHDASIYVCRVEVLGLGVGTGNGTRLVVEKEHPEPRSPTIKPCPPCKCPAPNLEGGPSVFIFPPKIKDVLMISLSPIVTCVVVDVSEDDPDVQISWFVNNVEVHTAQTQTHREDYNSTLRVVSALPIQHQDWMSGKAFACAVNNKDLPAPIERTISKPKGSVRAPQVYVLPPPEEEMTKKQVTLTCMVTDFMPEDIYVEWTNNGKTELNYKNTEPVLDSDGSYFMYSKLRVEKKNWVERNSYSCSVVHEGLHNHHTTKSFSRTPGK
Kind of experiment: competition FACS: soluble zB7H6/VASP at 100-fold mass excess competed NKp30/mFc2-biotin binding to K562, 293F and P815 zB7H6 cells. On the procedure: Cells were resuspended in PBS/2% FBS at a concentration of 1.5×10⁶ cells/ml (150,000 cells/sample). 100 μl samples were aliquoted with 100 μg/ml of whole human IgG (Jackson #009-000-003) included for Fc receptor blocking. NKp30/mFc2-biotin probe was added at a concentration of 2 μg/ml and 100-fold mass excess of a VASP protein (NKp30/VASP or human zB7H6/VASP) or a control VASP protein (B7H3/VASP). Cells were incubated for 1 hour on ice and washed with 2 ml cold PBS. Washed cells were resuspended in 100 μl of PBS/2% FBS with streptavidin-PE (BD:554061) at 1 μg/ml and incubated for 15 minutes on ice. Cells were then washed with 1 ml cold PBS, resuspended in 250 μl of PBS, and analyzed for PE staining on a FACSCalibur.

B1: NKp30/VASP (receptor)
chain: LWVSQPPEIRTLEGSSAFLPCSFNASQGRLAIGSVTWFRDEVVPGKEVRNGTPEFRGRLAPLASSRFLHDHQAELHIRDVRGHDASIYVCRVEVLGLGVGTGNGTRLVVEKEHPEPRSGSGGSGGSDLQRVKQELLEEVKKELQKVKEEIIEAFVQELRGSGGHHHHHH
notes: no limits or signal peptide residues stated; also called soluble NKp30/VASP A1683F; NKp30/VASP-A647
On to B1, for which the binding result in experiment [1] is “binds”.

B2: hzB7H6/VASP-His6 (ligand)
chain: DLKVEMMAGGTQITPLNDNVTIFCNIFYSQPLNITSMGITWFWKSLTFDKEVKVFEFFGDHQEAFRPGAIVSPWRLKSGDASLRLPGIQLEEAGEYRCEVVVTPLKAQGTVQLEVVASPASRLLLDQVGMKENEDKYMCESSGFYPEAINITWEKQTQKFPHPIEISEDVITGPTIKNMDGTFNVTSCLKLNSSQEDPGTVYQCVVRHASLHTPLRSNFTLTAARHSLSETEKTDNFSIHWWPEPRSGSGGSGGSDLQRVKQELLEEVKKELQKVKEEIIEAFVQELRGSGGHHHHHH
notes: also called human zB7H6/VASP; zB7H6 C(VASP)H6
In the case of B2, the binding result with NKp30/mFc2 is reported as “binds”.
